The target in assay [1] is human somatostatin receptor 2 (SSTR2), PRESTO-Tango construct (human) (UniProt P30874).
Assay [2] has as its target human somatostatin receptor 4 (SSTR4), PRESTO-Tango construct (human) (UniProt P31391).
The target in assay [3] is human somatostatin receptor 1 (SSTR1), PRESTO-Tango construct (human) (UniProt P30872).
Chain of human somatostatin receptor 1 (SSTR1), PRESTO-Tango construct (human) (P30872 whole entry): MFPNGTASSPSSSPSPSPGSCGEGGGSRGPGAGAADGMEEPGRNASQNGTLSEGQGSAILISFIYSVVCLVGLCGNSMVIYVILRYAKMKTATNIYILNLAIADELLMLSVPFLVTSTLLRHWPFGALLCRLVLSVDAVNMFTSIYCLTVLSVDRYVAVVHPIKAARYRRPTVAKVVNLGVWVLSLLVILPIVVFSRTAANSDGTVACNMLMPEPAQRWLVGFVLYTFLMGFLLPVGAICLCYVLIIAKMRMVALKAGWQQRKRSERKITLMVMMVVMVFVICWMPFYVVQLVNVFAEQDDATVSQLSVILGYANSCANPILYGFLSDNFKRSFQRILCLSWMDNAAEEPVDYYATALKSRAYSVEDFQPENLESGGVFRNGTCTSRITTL

Chain of human somatostatin receptor 2 (SSTR2), PRESTO-Tango construct (human) (P30874 whole entry): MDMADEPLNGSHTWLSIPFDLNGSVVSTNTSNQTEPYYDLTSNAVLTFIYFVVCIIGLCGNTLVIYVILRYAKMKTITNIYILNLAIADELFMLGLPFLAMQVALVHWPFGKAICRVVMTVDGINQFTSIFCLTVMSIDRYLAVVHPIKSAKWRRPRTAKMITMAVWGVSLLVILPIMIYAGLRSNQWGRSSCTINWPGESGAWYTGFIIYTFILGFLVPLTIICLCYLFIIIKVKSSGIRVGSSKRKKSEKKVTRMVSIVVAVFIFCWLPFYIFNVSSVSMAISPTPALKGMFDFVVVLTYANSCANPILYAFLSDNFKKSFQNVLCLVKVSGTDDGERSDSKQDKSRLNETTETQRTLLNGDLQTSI
Chain of human somatostatin receptor 4 (SSTR4), PRESTO-Tango construct (human) (P31391 whole entry): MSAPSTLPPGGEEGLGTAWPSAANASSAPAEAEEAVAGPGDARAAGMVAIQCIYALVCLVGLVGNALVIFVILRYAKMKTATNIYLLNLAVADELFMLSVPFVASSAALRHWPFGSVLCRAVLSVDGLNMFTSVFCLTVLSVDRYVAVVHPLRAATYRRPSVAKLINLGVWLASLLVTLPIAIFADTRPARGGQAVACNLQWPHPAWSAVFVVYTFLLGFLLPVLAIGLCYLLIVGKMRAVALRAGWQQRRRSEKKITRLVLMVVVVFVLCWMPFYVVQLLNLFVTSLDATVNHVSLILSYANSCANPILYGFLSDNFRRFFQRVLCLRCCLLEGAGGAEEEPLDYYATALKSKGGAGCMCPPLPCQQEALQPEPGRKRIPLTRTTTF

On to consomatin Fj2 (peptide), for which the values for the PRESTO-Tango β-arrestin recruitment assay (HTLA cells), EC50 in assay [1] and in assay [2] were 200 nM and 2000 nM, respectively.
In the case of consomatin Pr1 (peptide), the PRESTO-Tango β-arrestin recruitment assay (HTLA cells), EC50 in assay [3] worked out at 130 nM; in assay [1] it was 41 nM.

The record behind these values is article PMC12663243 (Scientific Reports, 2025).
